The values that follow come from US20070003522A1 (published 2007).

For this assay, the target named is T1, mouse transferrin receptor 1 (TfR1) on TRH3 cells (293T cells stably expressing mouse TfR1) (mouse, UniProt Q62351 1-763).
T1 construct: whole, on cells; also called mTfR1; CD71
Kind of assay: FACS on TRH3 cells, anti-TfR1 antibody staining after incubation with pseudovirus.

T1 sequence (Q62351 whole entry): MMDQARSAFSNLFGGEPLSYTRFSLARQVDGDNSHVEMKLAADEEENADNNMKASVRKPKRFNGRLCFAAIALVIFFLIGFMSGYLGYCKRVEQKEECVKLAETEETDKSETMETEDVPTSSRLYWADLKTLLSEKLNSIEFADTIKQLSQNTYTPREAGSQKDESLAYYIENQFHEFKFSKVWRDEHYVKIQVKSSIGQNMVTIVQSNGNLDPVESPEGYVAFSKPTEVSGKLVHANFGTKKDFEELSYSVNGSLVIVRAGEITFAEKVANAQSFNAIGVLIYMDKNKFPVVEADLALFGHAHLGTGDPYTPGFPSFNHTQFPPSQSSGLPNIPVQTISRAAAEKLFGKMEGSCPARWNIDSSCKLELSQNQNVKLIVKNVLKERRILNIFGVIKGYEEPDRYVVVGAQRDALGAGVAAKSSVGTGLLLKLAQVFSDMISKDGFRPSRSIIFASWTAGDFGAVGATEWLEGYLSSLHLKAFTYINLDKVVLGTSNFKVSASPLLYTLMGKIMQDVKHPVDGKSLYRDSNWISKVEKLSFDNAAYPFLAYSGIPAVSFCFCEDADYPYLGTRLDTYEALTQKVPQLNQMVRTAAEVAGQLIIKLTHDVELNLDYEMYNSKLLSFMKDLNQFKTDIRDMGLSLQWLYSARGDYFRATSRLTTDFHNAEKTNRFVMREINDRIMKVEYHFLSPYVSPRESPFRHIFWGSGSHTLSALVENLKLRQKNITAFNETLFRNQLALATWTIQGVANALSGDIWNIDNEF

B1: wild-type MMTV (C3H strain) env protein on pseudotyped MoMLV virus (other)
chain: ESYWAYLPKPPILHPVGWGNTDPIRVLTNQTIYLGGSPDFHGFRNMSGNVHFEGKSDTLPICFSFSFSTPTGCFQVDKQVFLSDTPTVDNNKPGGKGDKRRMWELWLTTLGNSGANTKLVPIKKKLPPKYPHCQIAFKKDAFWEGDESAPPRWLPCAFPDQGVSFSPKGALGLLWDFSLPSPSVDQSDQIKSKKDLFGNYTPPVNKEVHRWYEAGWVEPTWFWENSPKDPNDRDFTALVPHTELFRLVAASRYLILKRPGFQEHDMIPTSACVTYPHAILLGLPQLIDIEKRGSTFHISCSSCRLTNCLDSSAYDYAAIIVKRPPYVLLPVDIGDEPWFDDSAIQTFRYATDLIRAKRFVAAIILGISALIAIITSFAVATTALVKEMQTATFVNNLHRNVTLALSEQRIIDLKLEARLNALEEVVLELGQDVANLKTRMSTRCHANYDFICVTPLPYNASESWERTKAHLLGIWNDNEISYNIQELTNLISDMSKQHIDTVDLSGLAQSFANGVKALNPLDWTQYFIFIGVGALLLVIVLMIFPIVFQCLAKSLDQVQSDLNVLLLKKKKGGNAAPAAEMVELPRVSYT
notes: On virions it is processed into SU (gp52) and TM (gp36); also called wild type pseudovirus; wt
In the case of B1, the binding result is reported as “binds”.
